Test results published in article PMC5431922.

Key:
[1] = target: 20.8-kDa tegumental-allergen-like protein from Clonorchis sinensis (CsTAL3), full-length (aa 1-184) (Clonorchis sinensis); experiment: SAXS; 20 °C, 20 mM Tris-HCl pH 7.5, 100 mM NaCl, without or with 5 mM CaCl2; 1.9 to 5.2 mg/mL; molecular mass estimated against standard proteins
[2] = target: 20.8-kDa tegumental-allergen-like protein from Clonorchis sinensis (CsTAL3), full-length (aa 1-184) (Clonorchis sinensis); experiment: AUC; sedimentation velocity, 20 °C, 2.5 and 0.6 mg/mL, 50 x 10^3 rpm, interference optics, c(s) analysis; without CaCl2 and with 5 mM CaCl2

Substance: 20.8-kDa tegumental-allergen-like protein from Clonorchis sinensis (CsTAL3), full-length (aa 1-184) (natural protein)
- stoichiometry N [1]: 2
- stoichiometry N [2]: 2
